Results published in publication PMC8196545 (Cell reports, 2021).

B1: c9497 (antibody, V domains shown)
VH: QVQLVQSGAEVKKPGSSVKVSCKASGGSFSDYGISWVRQAPGQGLEWMGGIIPGLETTKFAQGLQGRLTMTADESSTTAYMVLTRLRSQDTAVYYCATTGQQNDYYSSGTSYKLNYYFGMDVWGQGTTVTVSS
VL: QSVLTQPPSSSGTPGQRVTITCSGGSSNIETNSVNWYQQLPGAAPKTVISATHQRPSGVPDRFSASKSGASASLAISGLQSEDEADYYCAVWDDSLHAWVFGGGTKVTVL
B2: c11058 (antibody, V domains shown)
V domain 1: EVRLDQSGTEMRKPGTRVRLSCKVSGHTTSDFFVHWVQQTPQGGPQWMGLINVEDENVIYADIFQGRISIVADTSKKTVFLDLTDLTFEETALYFCTTHTLQKDTGDYVAAFDSWGRGTLLYVSS
V domain 2: QPVLTQPPSVSAVPGQKVIISCSGRTSNIGTNFVSWYQQFPGAAPKLLIYDDFNRPSGISDRFSASKSDTSATLAITALQPGDEAEYYCGAWDSGLNPAVFVFGSGTRVFVL
B3: c10833 (antibody, V domains shown)
V domain 1: EVRLDQSGAEMRKPGTSVRLSCTVSGHTTNDFFIHWVKQDPQRGPLWMGLINVEDENVIYAEEFQGRISIVADSSKTTVFLDLSHLTFEDTALYLCTTHTLEKETGDYVAAFDSWGQGTFLSVSS
V domain 2: QSVLTQPPSVSAVPGQKVIISCSGRTSNIGTNFVSWYQQFPGAAPKLLIYDTFHRPSGISDRFSASKSDTSATLAITALQPGDEAEYYCGSWDSGLNPAVFVFGSGTRVFVL
B4: c5275 (antibody, V domains shown)
VH: QGQLVESGGGVVQPGTSLRLSCKASGFSFSNHVMHWVRQAPGKGLEWVAAIWDDGSNQYYRDSVKGRFTISRDNSKNTLFLQMSSLTVQDTAIYFCARRMSAVGTIFAYFNYGMDVWGRGTTVIVSS
VL: EVVLTQSPGTLSLSPGERGTLSCRASQHLSDSSLAWYQQKPGQAPRLLIYAASRRATGIPDRFSGSGSGTDFTLTISRLDPDDFAVYYCQHYGNSPVITFGQGTRLDIK
B5: c8395 (antibody, V domains shown)
VH: AVQFLQSGAEVKKPGESLKISCQDRGYGFNDYWIAWVRQMPGKGLEWMGLIYPDDSDTRYSPSFQGQVTILADKSINTAYLQWNSLKASDSAIYYCARLMVVDERSENTFDIWGQGTVVTVFS
VL: SSGLAQSPSLSVSPGQTATVTCSGDPLVNHFASWYQQQPGQSPILVIYQDNQRPSGIPERFSGSKTGNTATLTIGETQAADEADYFCQSWDITTAGMIFGGGTKLTVL
B6: c11422 (antibody, V domains shown)
VH: EARLVESGGGRVQPGGSLRLSCEASGFRFSSYSFNWVRQSPGKGLEWLAKISASPFGRSQINYAHSVEGRFIISRDNDGNSLRLQMNDLRGADTGVYYCARAPWQERNLDYNYAMDVWGQGTTVIVSS
VL: ELVLTQSPGTLSLSPGERATVSCRASQSLRRDSLAWYQQKPGHSPRLLIFAASNRVPGIPYRFSGSGSGTQFTLTIDKMEPEDFAVYYCQTYGSSPLYTFGQGTKLDIN
B7: c13217 (antibody, V domains shown)
VH: QVQLVESGGGVVQPGKSLRLSCTASGFDVGHFTMHWVRQAPGKGLEWVGLTRTDGNTEEYADSVKGRFAISRDNSKNTLSLQLNNVRAEDTAVYYCAKERVPLTAYAFDYWGQGTLVTVSS
VL: DIQMTQSPSSLSASVGDRVTITCRSSERIRTYVNWYQQKPGQAPQLLIYAASTLQNGVPSRFSGSGSGTVFTLTVNSLQPADFATYSCQQSYSLPWTFGQGTRVEVN
B8: c24251 (antibody, V domains shown)
VH: QVQLQESGPGLVKPSETLSLTCTVSGASINSYYWSWIRQTPGKGLEWIGFISNAGTTKYNPSLQSRVTISRDTSKNQVSLHLTSVTAADTAVYHCARDGLPGSNWGYNYAGMDVWGQGTTVTVTS
VL: DIQMTQSPSTLSASVGDRVTITCRTSQPISVWLAWYQQKPGKAPKVLIYRASSLEDGVPSRFSGSGSGTEFTLTISSLQPDDFATYFCQHYNTFSRTFGQGTKVEIK
B9: c24148 (antibody, V domains shown)
VH: QVEVQESGPGLVKPSETLSLTCSVSGGSITGYYWSWIRQAPGKGLEWIGFISPGGSARYNPSLKSRVTISKDASTNQVSLRLISVTASDTAVYFCVRDGAAGNNWGYNYYGMDVWGQGTTVTVSS
VL: DIQLTQSPSTLSASIGDRVTITCRASQSISVWLAWYQQKPGKAPNLLIYRASTLDSGVPSRFSGSGSGTEFTLTISSLQPDDLGTYYCQHYDTPSRTFGPGTKVEIT
B10: c5392 (antibody, V domains shown)
VH: ELQLKESGPGLVKPSETLSLTCAVSGGPMCADWCFYYHWNWVRLSAEKGLEWMGRIHISGTAEYNPSFKGRATISLDISKNELSLTMTSLAAADTAVYFCARSGGNFHPTYFYMMDIWGRGTTVVVSS
VL: DIQMTQSPSTLYASLGETVTITCRASQNIKKWLAWYQMRPGRAPRLLIYMATYRHDADSARYIGSESGGEFTLTIKSLRPDDFGTFYCQQYGAQPWTFGQGTRLEVK
B11: c1141 (antibody, V domains shown)
VH: QVRLHQWGEGLLRPSDTLSLTCSLSGNVFYETFFNWIRQSPGKGLEWIAEVSFAGDWNYNPSLKSRVTTYVDGFKYHASLHMRSMTAADAGVYYCAAGGGSFDVHSWGQGIRVTVSS
VL: EIVLTQTPLSSSVTLGQAASISCTSNHSLQHSNGNTYLSWFQQRPDQPPRLLIRKISNRGSGVPDRFSGSGSGTHFTLTIDRVEPEDVGTYYCVQATQFPWTFGQGTTVDIT
B12: c1134 (antibody, V domains shown)
VH: QVRLHQWGEGLLRPSDTLSLTCSLSGNVFYETFFNWIRQSPGKGLEWIAEVSFAGDWNYNPSLKSRVTTYVDGFKYHASLQMSSMTAADAGVYYCAAGGGSFDVHSWGQGIRVTVSS
VL: EIVLTQAPLSSSVTLGQAASISCTSNHSLQHSNGNTYLSWFQQRPGQPPRLLIRKISNRGSGVPDRFSGSGSGTHFTLTIDRVEPEDVGTYYCVQATQFPWTFGQGTTVDIT
B13: c1174 (antibody, V domains shown)
VH: QVRLHQWGEGLLRPSDTLSLTCSLSGNVFYRTFFNWIRQSPGKGLEWIAEVSFTGDWTYNPSLKSRVTTYVDGFKYHVSLQMSSMTAADAGVYYCASGGGSFDVDSWGQGIRVTVSS
VL: EIVLTQTPLSSSVTLGQSASISCRSSQSLQHSNGNTYLSWFQQRPGQPPRLLIRKISNRFSEVPDRFSGSGSGTDFTLTIDRVEPEDVGTYYCVQATQFPWTFGQGTTVDIT
B14: c7488 (antibody, V domains shown)
VH: QVRLEQWGGGLLKPSETLSLTCAAWDDNFHRYHWTWVRQFPGGRLQWIGQCEPFGAIKSNPSLGGRAGLSLDDSLRRFILTLRSLNVADTGVYFCVRGPERFHQPHFYYQGLGLWGPGSPVIVSS
VL: DVELTQSPLSLSVNPGESVSLFCRSTESLRNANGHDYLDWYVQKPGQSPQILIFLGSGRASGLPDRITASGSGSAFTLRIDKVEADDVGVYYCMQSIQLPRTFGQGTRLEIK
B15: c5237 (antibody, V domains shown)
VH: QVQLQESAPRLVKTSETLSLTCTVSGSHFYPYFYSWIRQSPGGKLQWIGRMYSTTGSMRTNPSLHTRVGMPLDHSRSQIGLTMSSMTAADTGIYYCVRDIMREFDSVDGSGGIYGGVDVWGRGTTVTVSS
VL: QFVLTQPPSVSGSPGKTVIISCTRSGGTFARNSVRWYLQRPGEIPTTVFFDGNRRASGIPDRFSASIGVSSTSASLTISGLTPEDEADYYCESSDGGHHVVFGGGTKVTVL
B16: c5338 (antibody, V domains shown)
VH: HVRLEQWGPGLLKPSETLSLSCVVHGESFDPYSWTWIRQSPKMGPQWLGEIRPFGETVYNPSLSGRLSLSRDNSKRLISLRLTSVSAADSAVYFCARGPVIYEVPYFWYRGLNVWGPGTTVVVST
VL: DVVVTQSPLSVSVTPGESATILCKSSHSLRHDNGMHYLDWYLQKPGQSPQLLIYLSSNRASGVPDRFIGSGSGTDFTLKISRVEAEDVGMYFCMQGRQDPRIFGRGTRLEIK
B17: c9674 (antibody, V domains shown)
VH: EVKLVESGGTLVKPGGSLRISCAASGFRFSSYSFNWVRQAPGKGPEWVAYISASPLGRSKVNYAHSVEGRFSVSRDNDAKSLHLQMSGLTRDDTAVYHCARAPWYEGNFNYNYAMDVWGQGTTVIVSS
VL: GVVLTQSPGTLSLSPGERVTVSCRASQSLSRDSLVWYQQKPGQPPRLLIYGASNRVPGIPDRFSGDGSGTQFTLTINRLEPEDFGVYYCQSYGHSPLYSFGQGTKLEIK
B18: c11465 (antibody, V domains shown)
VH: EVKLVESGGTQVQPGGSLRISCVGSGFRFSSYSFNWVRQAPGKGPEWVAYISASPFGRSKVTYAHSVEGRFIVSRDNDANSLYLQMTGLTRDDTAVYHCARAPYYEGNFQYNYAMDVWGLGTTVIVSS
VL: GVVLTQSPGTLSLSPGERATVSCRASQSLTRDSLVWYQQKPGQPPRLLIYGTSNRVPGIPDRFSGGGSGTQFTLTISRLEPEDFAVYYCQSYGLSPLYSFGQGTKLDIK
B19: c2518 (antibody, V domains shown)
VH: QVRLHQWGEGLLRPSDTLTLSCSLSGNVFYNTFFNWVRQSPGRGLEWIAEVSFAGEWTFNPSLRSRVTTQVDGFTYRVSLFLKSMTAADAGVYYCASGGGSFDVDSWGPGIRVTVSS
VL: EIVLTQTPLSSPVSLGQSASISCRSSQSLRHNNGNTYLSWFQQRPGQPPRLLIRKISDRFSGVPNRFSGSGAGTDFTLRIDRVEPEDVGTYYCLQATQFPWTFGQGTTVDIK
B20: c29323 (antibody, V domains shown)
VH: QVQLQESGPGLVRPSETLSLTCVVSGDSITRNYWSWLRQPPGKTLEWIGFMYDSGTVNYNPSLQSRVSISVDTSNNQFFLRLTSVTAADTAVYYCARHPSRGSDYDSATGDTYYYYYGMDVWGPGTSVVVSS
VL: DIQLTQSPPSLSASVGDRIVISCRATRDIGTSLNWYQQKPGQSPKLLIVAASTLESGVPSRFSAAGSATHFTLTISALQHDDVATYFCQQYLSLPLTFSGGTRVDLR
B21: c9488 (antibody, V domains shown)
VH: QVQLVQSGSEVKKPGASVKVSCKASDYTFPNFGISWLRQAPGQGLEWMGWIRGSDGETNYAQKFKDRVTLTTERSRGTAYMELRSLISDDTAVYYCARDLKWDCSKRGCPDYQWFDIWGQGTLVTVSS
VL: DVVMTQSPLSLPVTLGQPASISCISSHSLVYTDGNTYLAWFQQRPGQSPRRLIYTVSKRDSGVPDRFSGSGSGTDFTLKISRVEAEDVGIYFCMQGRHWPYTFGQGTTLEIK

These binders were tested against HIV-1 NL4-3 Env on infected cells (HIV-1 group M subtype B, NL4-3 (pNL4-3 …, strain)).
B1: binds.
B2: binds.
B3: binds.
B4: binds.
B5: binds.
B6: binds.
B7: binds.
B8: binds.
B9: binds.
B10: binds.
B11: binds.
B12: binds.
B13: binds.
B14: binds.
B15: binds.
B16: binds.
B17: binds.
B18: binds.
B19: binds.
B20: binds.
B21: binds.
